# Test results from IntAct's records for PubMed 15086532.
# Target: gasp1_human GPRASP1 (UniProt Q5JY77)
# Sequence (Q5JY77 whole entry): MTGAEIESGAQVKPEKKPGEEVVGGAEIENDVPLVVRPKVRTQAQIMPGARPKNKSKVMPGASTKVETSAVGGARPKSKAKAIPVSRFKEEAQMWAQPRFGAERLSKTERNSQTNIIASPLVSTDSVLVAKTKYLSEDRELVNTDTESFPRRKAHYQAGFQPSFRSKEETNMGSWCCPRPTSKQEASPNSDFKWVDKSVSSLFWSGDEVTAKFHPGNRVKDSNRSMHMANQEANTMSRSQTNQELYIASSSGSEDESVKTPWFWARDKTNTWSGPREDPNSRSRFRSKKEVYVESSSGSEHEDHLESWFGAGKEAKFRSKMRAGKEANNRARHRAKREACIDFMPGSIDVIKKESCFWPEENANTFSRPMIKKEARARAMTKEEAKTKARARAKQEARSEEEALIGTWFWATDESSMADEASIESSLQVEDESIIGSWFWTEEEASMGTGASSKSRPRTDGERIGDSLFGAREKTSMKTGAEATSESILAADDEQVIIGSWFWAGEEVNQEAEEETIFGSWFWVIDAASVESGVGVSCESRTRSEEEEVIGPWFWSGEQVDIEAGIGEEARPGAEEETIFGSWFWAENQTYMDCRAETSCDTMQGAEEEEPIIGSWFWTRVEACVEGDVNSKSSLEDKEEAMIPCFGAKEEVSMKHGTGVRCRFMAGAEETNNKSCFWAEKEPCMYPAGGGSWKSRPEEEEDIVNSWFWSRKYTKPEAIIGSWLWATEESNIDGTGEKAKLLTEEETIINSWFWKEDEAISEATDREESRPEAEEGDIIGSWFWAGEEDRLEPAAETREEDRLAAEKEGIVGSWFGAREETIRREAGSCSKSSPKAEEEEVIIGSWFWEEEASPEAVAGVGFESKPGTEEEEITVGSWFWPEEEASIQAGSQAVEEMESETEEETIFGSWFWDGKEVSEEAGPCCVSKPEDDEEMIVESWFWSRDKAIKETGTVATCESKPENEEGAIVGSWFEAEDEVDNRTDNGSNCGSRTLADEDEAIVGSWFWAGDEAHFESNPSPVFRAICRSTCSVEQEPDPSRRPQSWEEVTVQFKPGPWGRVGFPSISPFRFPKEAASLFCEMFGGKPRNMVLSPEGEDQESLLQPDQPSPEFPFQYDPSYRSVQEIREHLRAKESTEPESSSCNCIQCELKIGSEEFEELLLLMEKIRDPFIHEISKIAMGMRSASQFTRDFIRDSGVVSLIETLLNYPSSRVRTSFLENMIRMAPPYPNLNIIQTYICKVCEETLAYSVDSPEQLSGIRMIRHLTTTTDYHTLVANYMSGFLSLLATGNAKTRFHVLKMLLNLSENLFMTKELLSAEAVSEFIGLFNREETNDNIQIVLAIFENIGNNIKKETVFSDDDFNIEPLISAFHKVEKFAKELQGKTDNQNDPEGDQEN
# Sequence of Beta-1 adrenergic receptor (Homo sapiens), P08588 F383A;R384A (P08588 whole entry F383A/R384A): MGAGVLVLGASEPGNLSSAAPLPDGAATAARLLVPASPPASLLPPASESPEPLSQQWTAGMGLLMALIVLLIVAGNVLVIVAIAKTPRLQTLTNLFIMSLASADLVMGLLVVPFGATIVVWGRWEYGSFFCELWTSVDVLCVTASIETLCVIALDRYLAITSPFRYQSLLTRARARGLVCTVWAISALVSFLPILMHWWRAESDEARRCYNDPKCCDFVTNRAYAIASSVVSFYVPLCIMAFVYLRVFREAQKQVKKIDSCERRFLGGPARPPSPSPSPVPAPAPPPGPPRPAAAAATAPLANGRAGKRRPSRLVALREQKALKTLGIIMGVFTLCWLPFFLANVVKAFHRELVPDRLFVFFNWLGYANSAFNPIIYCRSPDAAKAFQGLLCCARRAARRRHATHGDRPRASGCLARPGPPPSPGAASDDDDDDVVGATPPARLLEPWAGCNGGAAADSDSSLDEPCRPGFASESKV
substance,measurement,value
"Beta-1 adrenergic receptor (Homo sapiens), P08588 F383A;R384A",effect of a mutation on the interaction,decreasing interaction
